Consider 1 molecule from patent US20250353911A1 (INHIBRX BIOSCIENCES, published 2025).

Read-outs that look alike come from different tables or passages of the source.

For assay [1], the target named is T1, Rat serum albumin (RSA) (rat, UniProt P02770 25-608).
T1 construct: Bought protein (Sigma); also called rat albumin
Description: ELISA on coated rat albumin, anti-human Fc HRP, A650, one site-total binding fit. (In general: ELISA stands for enzyme-linked immunosorbent assay.)
Description: (§1) Medisorp plates were coated with albumin protein at 2 μg/ml, 50 μl/well at 4° C. overnight (human, murine, and rat albumin-Sigma, cynomolgus monkey albumin-Abcam). 1× Fish Gelatin (blocking agent, Bethyl Laboratories) was added to albumin-coated wells followed by a 1 hour incubation at RT. Titrations of sdAb fusion proteins (starting at 100 nM, across 1:3 or down 1:4) were added and incubated for 1 hour at RT. Plates were washed 3 times with 0.1% D-PBST, and then anti-human Fc HRP antibody (1:2000 in 0.1% D-PBST, Jackson) was added and incubated for 30 minutes at RT. Plates were washed 3 times with 0.1% D-PBST, and then TMB substrate was added. Absorbance at 650 nm was read on a plate reader (Molecular Devices) and data were plotted using equation one site-total binding (Model: Y=Bmax*X/(Kd+X)+NS*X+Background, GraphPad Prism).

The target in assay [2] is T1, Rat serum albumin (RSA). Described as above. This is another data set of the same source.
Description: as §1
For assay [3], the target named is T2, Human serum albumin (HSA) (human, UniProt P02768 25-609).
T2 construct: also called human albumin; recombinant human albumin
Description: ELISA on coated human albumin, anti-human Fc HRP, A650, one site-total binding fit.
Description: as §1

Assay [4] addresses T2, Human serum albumin (HSA). The description is as above. This is another data set of the same source.
Description: as §1
In assay [5] the target is T3, Murine serum albumin (MSA) (mouse, UniProt P07724 25-608).
T3 construct: Bought protein (Sigma); also called murine albumin; mouse albumin
Description: ELISA on coated murine albumin, anti-human Fc HRP, A650, one site-total binding fit.
Description: as §1

Assay [6] has as its target T3, Murine serum albumin (MSA). The description is as above. The source holds these as a separate data set.
Description: as §1
For assay [7], the target named is T4, Cynomolgus monkey serum albumin (CSA) (cynomolgus monkey, UniProt A2V9Z4 25-608).
T4 construct: Bought protein (Abcam); also called cynomolgus monkey albumin
Description: ELISA on coated cynomolgus monkey albumin, anti-human Fc HRP, A650, one site-total binding fit.
Description: as §1

In assay [8] the target is T4, Cynomolgus monkey serum albumin (CSA). The description is as above. This is another data set of the same source.
Description: as §1
Assay [9] concerns the target T5, Mouse Fc-tagged human albumin domain III (human, UniProt P02768 405-609, limits assumed).
T5 construct: also called albumin domain 3 (mouse Fc tagged); albumin domain 3; not shown: mouse Fc tag
Description: biolayer interferometry, mouse Fc-tagged human albumin domain III (10 ug/ml) on anti-mouse IgG Fc biosensor, pH 5.

T4 sequence (A2V9Z4 25-608): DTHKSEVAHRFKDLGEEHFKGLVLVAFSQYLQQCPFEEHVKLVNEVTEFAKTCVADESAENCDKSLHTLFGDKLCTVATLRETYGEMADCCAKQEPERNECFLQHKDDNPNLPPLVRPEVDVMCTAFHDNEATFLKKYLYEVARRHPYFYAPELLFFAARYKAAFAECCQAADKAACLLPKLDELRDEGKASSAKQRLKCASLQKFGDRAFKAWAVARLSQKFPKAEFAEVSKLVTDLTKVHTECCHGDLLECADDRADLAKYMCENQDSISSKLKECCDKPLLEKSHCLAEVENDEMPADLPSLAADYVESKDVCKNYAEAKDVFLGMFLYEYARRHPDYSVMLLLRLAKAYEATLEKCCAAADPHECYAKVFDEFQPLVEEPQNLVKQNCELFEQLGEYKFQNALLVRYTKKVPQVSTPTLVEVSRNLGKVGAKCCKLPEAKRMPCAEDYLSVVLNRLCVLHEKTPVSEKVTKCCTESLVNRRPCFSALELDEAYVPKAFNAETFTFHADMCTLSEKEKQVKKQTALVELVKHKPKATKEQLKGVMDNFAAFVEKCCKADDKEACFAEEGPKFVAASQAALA
T2 sequence (P02768 25-609): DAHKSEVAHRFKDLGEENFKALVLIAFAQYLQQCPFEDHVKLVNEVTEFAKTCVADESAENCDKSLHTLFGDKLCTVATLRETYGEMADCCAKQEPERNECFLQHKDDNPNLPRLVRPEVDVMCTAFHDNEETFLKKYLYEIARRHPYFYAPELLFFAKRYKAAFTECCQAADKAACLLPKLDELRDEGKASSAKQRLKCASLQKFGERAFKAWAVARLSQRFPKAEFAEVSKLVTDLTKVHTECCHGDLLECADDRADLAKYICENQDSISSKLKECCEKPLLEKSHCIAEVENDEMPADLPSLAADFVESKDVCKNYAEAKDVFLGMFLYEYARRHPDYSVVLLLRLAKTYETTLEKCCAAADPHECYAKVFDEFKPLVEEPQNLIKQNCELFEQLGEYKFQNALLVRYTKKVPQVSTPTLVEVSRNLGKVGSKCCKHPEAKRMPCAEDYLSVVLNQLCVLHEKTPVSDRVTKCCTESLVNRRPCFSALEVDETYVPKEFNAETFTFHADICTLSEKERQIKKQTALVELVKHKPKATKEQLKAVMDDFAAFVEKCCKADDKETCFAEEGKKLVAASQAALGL
T1 sequence (P02770 25-608): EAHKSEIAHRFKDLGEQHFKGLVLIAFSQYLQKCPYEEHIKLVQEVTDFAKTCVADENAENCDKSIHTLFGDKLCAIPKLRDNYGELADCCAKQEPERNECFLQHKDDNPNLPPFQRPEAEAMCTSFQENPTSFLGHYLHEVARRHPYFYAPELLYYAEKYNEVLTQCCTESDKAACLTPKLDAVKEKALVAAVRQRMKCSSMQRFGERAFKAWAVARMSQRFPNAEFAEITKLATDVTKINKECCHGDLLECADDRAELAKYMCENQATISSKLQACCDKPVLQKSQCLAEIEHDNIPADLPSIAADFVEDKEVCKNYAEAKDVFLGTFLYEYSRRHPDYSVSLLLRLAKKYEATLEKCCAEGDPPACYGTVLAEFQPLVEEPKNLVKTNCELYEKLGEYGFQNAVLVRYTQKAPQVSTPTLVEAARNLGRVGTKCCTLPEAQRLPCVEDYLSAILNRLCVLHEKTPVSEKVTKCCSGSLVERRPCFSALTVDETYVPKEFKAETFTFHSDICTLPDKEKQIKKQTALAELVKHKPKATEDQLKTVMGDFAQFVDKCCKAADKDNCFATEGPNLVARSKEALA
T5 sequence (P02768 405-609 limits assumed): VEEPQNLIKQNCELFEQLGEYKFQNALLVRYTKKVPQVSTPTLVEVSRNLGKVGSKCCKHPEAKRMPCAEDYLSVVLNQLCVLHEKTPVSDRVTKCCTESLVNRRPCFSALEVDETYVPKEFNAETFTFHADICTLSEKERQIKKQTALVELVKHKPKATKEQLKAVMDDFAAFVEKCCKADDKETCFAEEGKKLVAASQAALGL

B1: 4A01-NNT-hFc (Fc fusion)
chain: QVQLQESGGGLVQPGGSLRLSCAASGFAFSTSGMVWVRQATGKGLEWVSTISDDSRIIRYADSVNGRFTISRDNAENTLYLLMNSLKPEDTAVYYCATYRAGSRIGSYEDYYRGQGTQVTVSSGGPSVFLFPPKPKDTLMISRTPEVTCVVVDVSHEDPEVKFNWYVDGVEVHNAKTKPREEQYNSTYRVVSVLTVLHQDWLNGKEYKCKVSNKALPAPIEKTISKAKGQPREPQVYTLPPSRDELTKNQVNLTCLVKGFYPSDIAVEWESNGQPENNYKTTPPVLDSDGSFFLNSTLTVDKSRWQQGNVFSCSVMHEALHNHYTQKSLSLSPG
notes: Monomeric sdAb-Fc fusion (Fc S364N, Y407N, K409T = NNT); also called 1m4A01; anti-albumin sdAb 4A01
As usually defined, the Kd is the concentration at which binding is half-saturated. B1: the Bmax in assay [1] came out at 1.24 A650; in assay [3] it was 1.34 A650; in assay [5], 1.26 A650; in [7], 1.27 A650. In addition, the Kd in assay [1] worked out at 0.144 nM; in [2], 0.182 nM; in [3] it was 0.105 nM; in assay [4], 0.171 nM; in assay [5], 0.114 nM; in assay [6], 0.193 nM. The equilibrium dissociation constant (Kd) in assay [7] was found to be 0.113 nM; in [8], 0.162 nM. Further, the binding result in assay [9] was “no binding”.
